# Assay: in vivo
# Parameters: species or system mice
# Settings: male, NODSCID 1L2RγKO, mouse, iv, total radioactivity
smiles,measurement,setting,value
"O=C(O)CCC[C@H](NC(=O)N[C@@H](CCCCNC(=O)[C@H](Cc1c2ccccc2cc2ccccc12)NC(=O)[C@H]1CC[C@H](CNC(=O)[C@H](CCCCNC(=O)CN2CCN(CC(=O)O)CCN(CC(=O)O)CCN(CC(=O)O)CC2)NC(=O)CNC(=O)CCCc2ccc(Cl)cc2)CC1)C(=O)O)C(=O)O [177Lu-HTK03153, metal not drawn]",tissue uptake at 1 h,Adrenal glands uptake,4.52 ± 0.46 %ID/g
same,tissue uptake at 4 h,Adrenal glands uptake,3.5 ± 0.46 %ID/g
same,tissue uptake at 24 h,Adrenal glands uptake,2.35 ± 0.47 %ID/g
same,tissue uptake at 72 h,Adrenal glands uptake,1.2 ± 0.26 %ID/g
same,tissue uptake at 120 h,Adrenal glands uptake,0.82 ± 0.19 %ID/g
same,tissue uptake at 1 h,Blood uptake,24.7 ± 2.11 %ID/g
same,tissue uptake at 4 h,Blood uptake,18.8 ± 1.16 %ID/g
same,tissue uptake at 24 h,Blood uptake,7.44 ± 1.12 %ID/g
same,tissue uptake at 72 h,Blood uptake,1.46 ± 0.58 %ID/g
same,tissue uptake at 120 h,Blood uptake,0.37 ± 0.13 %ID/g
same,tissue uptake at 1 h,Bone uptake,1.26 ± 0.15 %ID/g
same,tissue uptake at 4 h,Bone uptake,0.83 ± 0.15 %ID/g
same,tissue uptake at 24 h,Bone uptake,0.4 ± 0.08 %ID/g
same,tissue uptake at 72 h,Bone uptake,0.16 ± 0.06 %ID/g
same,tissue uptake at 120 h,Bone uptake,0.06 ± 0.04 %ID/g
same,tissue uptake at 1 h,Brain uptake,0.35 ± 0.03 %ID/g
same,tissue uptake at 4 h,Brain uptake,0.27 ± 0.03 %ID/g
same,tissue uptake at 24 h,Brain uptake,0.13 ± 0.02 %ID/g
same,tissue uptake at 72 h,Brain uptake,0.05 ± 0.02 %ID/g
same,tissue uptake at 120 h,Brain uptake,0.03 %ID/g
same,tissue uptake at 1 h,Fat uptake,1.61 ± 0.36 %ID/g
same,tissue uptake at 4 h,Fat uptake,1.46 ± 0.36 %ID/g
same,tissue uptake at 24 h,Fat uptake,0.66 ± 0.16 %ID/g
same,tissue uptake at 72 h,Fat uptake,0.3 ± 0.13 %ID/g
same,tissue uptake at 120 h,Fat uptake,0.19 ± 0.09 %ID/g
same,tissue uptake at 1 h,Heart uptake,5.95 ± 0.44 %ID/g
same,tissue uptake at 4 h,Heart uptake,4.26 ± 0.44 %ID/g
same,tissue uptake at 24 h,Heart uptake,1.9 ± 0.25 %ID/g
same,tissue uptake at 72 h,Heart uptake,0.68 ± 0.25 %ID/g
same,tissue uptake at 120 h,Heart uptake,0.32 ± 0.07 %ID/g
same,tissue uptake at 1 h,Intestine uptake,1.56 ± 0.16 %ID/g
same,tissue uptake at 4 h,Intestine uptake,1.22 ± 0.16 %ID/g
same,tissue uptake at 24 h,Intestine uptake,0.78 ± 0.1 %ID/g
same,tissue uptake at 72 h,Intestine uptake,0.3 ± 0.1 %ID/g
same,tissue uptake at 120 h,Intestine uptake,0.18 ± 0.08 %ID/g
same,tissue uptake at 1 h,Kidneys uptake,10 ± 1.09 %ID/g
same,tissue uptake at 4 h,Kidneys uptake,9.1 ± 1.09 %ID/g
same,tissue uptake at 24 h,Kidneys uptake,8.81 ± 1.06 %ID/g
same,tissue uptake at 72 h,Kidneys uptake,4.95 ± 2.39 %ID/g
same,tissue uptake at 120 h,Kidneys uptake,2.81 ± 0.35 %ID/g
same,tissue uptake at 1 h,Lacrimal uptake,0.35 ± 0.07 %ID/g
same,tissue uptake at 4 h,Lacrimal uptake,0.35 ± 0.14 %ID/g
same,tissue uptake at 24 h,Lacrimal uptake,0.18 ± 0.06 %ID/g
same,tissue uptake at 72 h,Lacrimal uptake,0.05 ± 0.05 %ID/g
same,tissue uptake at 120 h,Lacrimal uptake,0.02 ± 0.02 %ID/g
same,tissue uptake at 1 h,Liver uptake,3.61 ± 0.65 %ID/g
same,tissue uptake at 4 h,Liver uptake,3.19 ± 0.65 %ID/g
same,tissue uptake at 24 h,Liver uptake,1.52 ± 0.25 %ID/g
same,tissue uptake at 72 h,Liver uptake,0.73 ± 0.21 %ID/g
same,tissue uptake at 120 h,Liver uptake,0.4 ± 0.03 %ID/g
same,tissue uptake at 1 h,Lungs uptake,10.8 ± 1.38 %ID/g
same,tissue uptake at 4 h,Lungs uptake,9.4 ± 1.38 %ID/g
same,tissue uptake at 24 h,Lungs uptake,3.93 ± 0.41 %ID/g
same,tissue uptake at 72 h,Lungs uptake,1.87 ± 1.31 %ID/g
same,tissue uptake at 120 h,Lungs uptake,0.56 ± 0.12 %ID/g
same,tissue uptake at 1 h,Muscle uptake,1.54 ± 0.16 %ID/g
same,tissue uptake at 4 h,Muscle uptake,1.19 ± 0.16 %ID/g
same,tissue uptake at 24 h,Muscle uptake,0.56 ± 0.1 %ID/g
same,tissue uptake at 72 h,Muscle uptake,0.18 ± 0.07 %ID/g
same,tissue uptake at 120 h,Muscle uptake,0.07 ± 0.01 %ID/g
same,tissue uptake at 1 h,Pancreas uptake,2.17 ± 0.21 %ID/g
same,tissue uptake at 4 h,Pancreas uptake,1.6 ± 0.21 %ID/g
same,tissue uptake at 24 h,Pancreas uptake,0.77 ± 0.09 %ID/g
same,tissue uptake at 72 h,Pancreas uptake,0.29 ± 0.13 %ID/g
same,tissue uptake at 120 h,Pancreas uptake,0.15 ± 0.04 %ID/g
same,tissue uptake at 1 h,Salivary uptake,3.56 ± 0.39 %ID/g
same,tissue uptake at 4 h,Salivary uptake,2.86 ± 0.39 %ID/g
same,tissue uptake at 24 h,Salivary uptake,1.25 ± 0.14 %ID/g
same,tissue uptake at 72 h,Salivary uptake,0.68 ± 0.22 %ID/g
same,tissue uptake at 120 h,Salivary uptake,0.37 ± 0.04 %ID/g
same,tissue uptake at 1 h,Seminal uptake,1.3 ± 0.32 %ID/g
same,tissue uptake at 4 h,Seminal uptake,1.2 ± 0.32 %ID/g
same,tissue uptake at 24 h,Seminal uptake,0.7 ± 0.5 %ID/g
same,tissue uptake at 72 h,Seminal uptake,0.23 ± 0.11 %ID/g
same,tissue uptake at 120 h,Seminal uptake,0.15 ± 0.05 %ID/g
same,tissue uptake at 1 h,Spleen uptake,2.54 ± 0.27 %ID/g
same,tissue uptake at 4 h,Spleen uptake,1.54 ± 0.27 %ID/g
same,tissue uptake at 24 h,Spleen uptake,1.21 ± 0.24 %ID/g
same,tissue uptake at 72 h,Spleen uptake,1.03 ± 0.46 %ID/g
same,tissue uptake at 120 h,Spleen uptake,1.53 ± 0.71 %ID/g
same,tissue uptake at 1 h,Stomach uptake,0.89 ± 0.15 %ID/g
same,tissue uptake at 4 h,Stomach uptake,0.71 ± 0.15 %ID/g
same,tissue uptake at 24 h,Stomach uptake,0.68 ± 0.15 %ID/g
same,tissue uptake at 72 h,Stomach uptake,0.31 ± 0.17 %ID/g
same,tissue uptake at 120 h,Stomach uptake,0.15 ± 0.1 %ID/g
same,tissue uptake at 1 h,Tail uptake,5.38 ± 5.96 %ID/g
same,tissue uptake at 4 h,Tail uptake,6.89 ± 5.96 %ID/g
same,tissue uptake at 24 h,Tail uptake,1.55 ± 0.34 %ID/g
same,tissue uptake at 72 h,Tail uptake,0.44 ± 0.15 %ID/g
same,tissue uptake at 120 h,Tail uptake,0.24 ± 0.04 %ID/g
same,tissue uptake at 1 h,Testes uptake,3.24 ± 0.4 %ID/g
same,tissue uptake at 4 h,Testes uptake,3.45 ± 0.4 %ID/g
same,tissue uptake at 24 h,Testes uptake,2.15 ± 0.33 %ID/g
same,tissue uptake at 72 h,Testes uptake,1.38 ± 0.48 %ID/g
same,tissue uptake at 120 h,Testes uptake,0.98 ± 0.22 %ID/g
same,tissue uptake at 1 h,Thyroid uptake,4.8 ± 0.32 %ID/g
same,tissue uptake at 4 h,Thyroid uptake,3.57 ± 0.32 %ID/g
same,tissue uptake at 24 h,Thyroid uptake,1.95 ± 0.32 %ID/g
same,tissue uptake at 72 h,Thyroid uptake,0.85 ± 0.28 %ID/g
same,tissue uptake at 120 h,Thyroid uptake,0.52 ± 0.12 %ID/g
same,tissue uptake at 1 h,Tumor uptake,14.2 ± 7.67 %ID/g
same,tissue uptake at 4 h,Tumor uptake,27.9 ± 7.67 %ID/g
same,tissue uptake at 24 h,Tumor uptake,57.2 ± 10.1 %ID/g
same,tissue uptake at 72 h,Tumor uptake,69.1 ± 13.4 %ID/g
same,tissue uptake at 120 h,Tumor uptake,86.4 ± 8.05 %ID/g

# Reference: US11504441B2, “Radiolabeled compounds targeting the prostate-specific membrane antigen” (PROVINCIAL HEALTH SERVICES AUTHORITY, priority 2019, dated 2022)
